{"source": "the supplement of paper PMC10567573", "parents": {"B1": {"name": "MFF (parent)", "chain": "MAEISRIQYEMEYTEGISQRMRVP"}}}
{"variants_of": "B1", "experiment": "protein stability index of a GFP-peptide fusion (GPS, HEK-293T) (PSI 1-6); higher = more stable", "conditions": "c terminus: a fixed tail appended"}
{"variant": "MAEISRIQLEMEYTEGISQRMRVP", "note": "[Y9L]", "protein stability index": 2.28}
{"variant": "MAEISRIQSEMEYTEGISQRMRVP", "note": "[Y9S]", "protein stability index": 3.42}
{"variant": "MAEISRIQYGMEYTEGISQRMRVP", "note": "[E10G]", "protein stability index": 2.67}
{"variant": "MAEISRIQYIMEYTEGISQRMRVP", "note": "[E10I]", "protein stability index": 1.6}
{"variant": "MAEISRIQYTMEYTEGISQRMRVP", "note": "[E10T]", "protein stability index": 1.99}
{"variant": "MAEISRIQYMMEYTEGISQRMRVP", "note": "[E10M]", "protein stability index": 2.08}
{"variant": "MAEISRIQYLMEYTEGISQRMRVP", "note": "[E10L]", "protein stability index": 1.66}
{"variant": "MAEISRIQYEMEFTEGISQRMRVP", "note": "[Y13F]", "protein stability index": 2.41}
{"variant": "MAEISRIQYEMENTEGISQRMRVP", "note": "[Y13N]", "protein stability index": 3.45}
{"variant": "MAEISRIQYEMERTEGISQRMRVP", "note": "[Y13R]", "protein stability index": 2.71}
{"variant": "MAEISRIQYEMEETEGISQRMRVP", "note": "[Y13E]", "protein stability index": 3.32}
{"variant": "MAEISRIQYEMEITEGISQRMRVP", "note": "[Y13I]", "protein stability index": 2.33}
{"variant": "MAEISRIQYEMEQTEGISQRMRVP", "note": "[Y13Q]", "protein stability index": 3.35}
{"variant": "MAPISRIQYEMEYTEGISQRMRVP", "note": "[E3P]", "protein stability index": 3.31}
{"variant": "MAYISRIQYEMEYTEGISQRMRVP", "note": "[E3Y]", "protein stability index": 2.01}
{"variant": "MAIISRIQYEMEYTEGISQRMRVP", "note": "[E3I]", "protein stability index": 1.7}
{"variant": "MAHISRIQYEMEYTEGISQRMRVP", "note": "[E3H]", "protein stability index": 2.93}
{"variant": "MAAISRIQYEMEYTEGISQRMRVP", "note": "[E3A]", "protein stability index": 1.85}
{"variant": "MALISRIQYEMEYTEGISQRMRVP", "note": "[E3L]", "protein stability index": 1.77}
{"variant": "MARISRIQYEMEYTEGISQRMRVP", "note": "[E3R]", "protein stability index": 2.39}
{"variant": "MANISRIQYEMEYTEGISQRMRVP", "note": "[E3N]", "protein stability index": 2.41}
{"variant": "MAEISRIQYEMEYTKGISQRMRVP", "note": "[E15K]", "protein stability index": 2.43}
{"variant": "MAEISRIQYEMEYTSGISQRMRVP", "note": "[E15S]", "protein stability index": 1.94}
{"variant": "MAEISRIQYEMEYTLGISQRMRVP", "note": "[E15L]", "protein stability index": 1.66}
{"variant": "MAEISRIQYEMEYTDGISQRMRVP", "note": "[E15D]", "protein stability index": 2.64}
{"variant": "MAEISRIQYEMEYTGGISQRMRVP", "note": "[E15G]", "protein stability index": 2.15}
{"variant": "MAEISRIQYEMEYTPGISQRMRVP", "note": "[E15P]", "protein stability index": 1.96}
{"variant": "MAEISRIQYEMEYTNGISQRMRVP", "note": "[E15N]", "protein stability index": 3.14}
{"variant": "MAEISRIQYEMEYTCGISQRMRVP", "note": "[E15C]", "protein stability index": 1.46}
{"variant": "MAEISRIQYEMEYPEGISQRMRVP", "note": "[T14P]", "protein stability index": 2.55}
{"variant": "MAEISRIQYEMEYKEGISQRMRVP", "note": "[T14K]", "protein stability index": 3.28}
{"variant": "MAEISRIQYEMEYWEGISQRMRVP", "note": "[T14W]", "protein stability index": 1.97}
{"variant": "MAEISRIQYEMEYAEGISQRMRVP", "note": "[T14A]", "protein stability index": 2.68}
{"variant": "MAEISRIQYEMEYSEGISQRMRVP", "note": "[T14S]", "protein stability index": 2.71}
{"variant": "MAEISRIQYEMEYVEGISQRMRVP", "note": "[T14V]", "protein stability index": 2.56}
{"variant": "MAEISRIQYEMEYGEGISQRMRVP", "note": "[T14G]", "protein stability index": 2.75}
{"variant": "MAEISRIQYEMEYREGISQRMRVP", "note": "[T14R]", "protein stability index": 2.35}
{"variant": "MAEISRIQYEMEYMEGISQRMRVP", "note": "[T14M]", "protein stability index": 2.2}
{"variant": "MAEISRIQYEMEYTEGIWQRMRVP", "note": "[S18W]", "protein stability index": 1.89}
{"variant": "MAEISRIQYEMEYTEGIQQRMRVP", "note": "[S18Q]", "protein stability index": 2.62}
{"variant": "MAEISRIQYEMEYTEGIGQRMRVP", "note": "[S18G]", "protein stability index": 2.51}
{"variant": "MAEISRIQYEMEYTEGIEQRMRVP", "note": "[S18E]", "protein stability index": 3.04}
{"variant": "MAEISRIQYEMEYTEGIAQRMRVP", "note": "[S18A]", "protein stability index": 1.56}
{"variant": "MAEISRIQYEMEYTEGIVQRMRVP", "note": "[S18V]", "protein stability index": 1.74}
{"variant": "MAEISRIQYEMEYTEGIIQRMRVP", "note": "[S18I]", "protein stability index": 1.66}
{"variant": "MAEISRIQYEMEYTEGIFQRMRVP", "note": "[S18F]", "protein stability index": 1.97}
{"variant": "MAEISRIQYEMEYTEGISQKMRVP", "note": "[R20K]", "protein stability index": 2.72}
{"variant": "MAEISRIQYEMEYTEGISQNMRVP", "note": "[R20N]", "protein stability index": 2.46}
{"variant": "MAEISRIQYEMEYTEGISQMMRVP", "note": "[R20M]", "protein stability index": 2.13}
{"variant": "MAEISRIQYEMEYTEGISQSMRVP", "note": "[R20S]", "protein stability index": 2.27}
{"variant": "MAEISRIQYEMEYTEGISQVMRVP", "note": "[R20V]", "protein stability index": 2.17}
{"variant": "MAEISRIQYEMEYTEGISQRMRVF", "note": "[P24F]", "protein stability index": 1.54}
{"variant": "MAEISRIQYEMEYTEGISQRMRVL", "note": "[P24L]", "protein stability index": 2.16}
{"variant": "MAEISRIQYEMEYTEGISQRMRVR", "note": "[P24R]", "protein stability index": 2.87}
{"variant": "MAEISRIQYEMEYTEGISQRMRVN", "note": "[P24N]", "protein stability index": 2.56}
{"variant": "MAEISRIQYEMEYTEGISQRMRVS", "note": "[P24S]", "protein stability index": 2.33}
{"variant": "MAEISRIQYEMEYTEGISQRMRVY", "note": "[P24Y]", "protein stability index": 1.85}
{"variant": "MAEISRIQYEMEYTEGISQRMRVI", "note": "[P24I]", "protein stability index": 1.91}
{"variant": "MAEISRIQYEMEYTEGISQRMRVG", "note": "[P24G]", "protein stability index": 2.44}
{"variant": "MAEISRPQYEMEYTEGISQRMRVP", "note": "[I7P]", "protein stability index": 3.37}
{"variant": "MAEISRQQYEMEYTEGISQRMRVP", "note": "[I7Q]", "protein stability index": 3.43}
{"variant": "MAEISRSQYEMEYTEGISQRMRVP", "note": "[I7S]", "protein stability index": 3.51}
{"variant": "MAEISRWQYEMEYTEGISQRMRVP", "note": "[I7W]", "protein stability index": 2.02}
{"variant": "MAEISRCQYEMEYTEGISQRMRVP", "note": "[I7C]", "protein stability index": 2.56}
{"variant": "MAEISRHQYEMEYTEGISQRMRVP", "note": "[I7H]", "protein stability index": 3}
{"variant": "MAEISRNQYEMEYTEGISQRMRVP", "note": "[I7N]", "protein stability index": 3.6}
{"variant": "MAEISREQYEMEYTEGISQRMRVP", "note": "[I7E]", "protein stability index": 4.11}
{"variant": "SAEISRIQYEMEYTEGISQRMRVP", "note": "[M1S]", "protein stability index": 3.01}
{"variant": "CAEISRIQYEMEYTEGISQRMRVP", "note": "[M1C]", "protein stability index": 1.85}
{"variant": "QAEISRIQYEMEYTEGISQRMRVP", "note": "[M1Q]", "protein stability index": 3.56}
{"variant": "PAEISRIQYEMEYTEGISQRMRVP", "note": "[M1P]", "protein stability index": 3.45}
{"variant": "YAEISRIQYEMEYTEGISQRMRVP", "note": "[M1Y]", "protein stability index": 1.9}
{"variant": "KAEISRIQYEMEYTEGISQRMRVP", "note": "[M1K]", "protein stability index": 2.97}
{"variant": "GAEISRIQYEMEYTEGISQRMRVP", "note": "[M1G]", "protein stability index": 3.14}
{"variant": "WAEISRIQYEMEYTEGISQRMRVP", "note": "[M1W]", "protein stability index": 2.35}
{"variant": "MAEISRIQYEMEYTEGISSRMRVP", "note": "[Q19S]", "protein stability index": 2.56}
{"variant": "MAEISRIQYEMEYTEGISLRMRVP", "note": "[Q19L]", "protein stability index": 1.41}
{"variant": "MAEISRIQYEMEYTEGISKRMRVP", "note": "[Q19K]", "protein stability index": 2.44}
{"variant": "MAEISRIQYEMEYTEGISYRMRVP", "note": "[Q19Y]", "protein stability index": 1.81}
{"variant": "MAEISRIQYEMEYTEGISMRMRVP", "note": "[Q19M]", "protein stability index": 2.65}
{"variant": "MAEISPIQYEMEYTEGISQRMRVP", "note": "[R6P]", "protein stability index": 3.36}
{"variant": "MAEISAIQYEMEYTEGISQRMRVP", "note": "[R6A]", "protein stability index": 3.16}
{"variant": "MAEISHIQYEMEYTEGISQRMRVP", "note": "[R6H]", "protein stability index": 3}
{"variant": "MAEISEIQYEMEYTEGISQRMRVP", "note": "[R6E]", "protein stability index": 3.42}
{"variant": "MAEISIIQYEMEYTEGISQRMRVP", "note": "[R6I]", "protein stability index": 1.63}
{"variant": "MAEISYIQYEMEYTEGISQRMRVP", "note": "[R6Y]", "protein stability index": 1.53}
{"variant": "MAEISVIQYEMEYTEGISQRMRVP", "note": "[R6V]", "protein stability index": 2.03}
{"variant": "MAEISRIQYEMEYTEGTSQRMRVP", "note": "[I17T]", "protein stability index": 3.4}
{"variant": "MAEISRIQYEMEYTEGDSQRMRVP", "note": "[I17D]", "protein stability index": 3.95}
{"variant": "MAEISRIQYEMEYTEGHSQRMRVP", "note": "[I17H]", "protein stability index": 3.4}
{"variant": "MQEISRIQYEMEYTEGISQRMRVP", "note": "[A2Q]", "protein stability index": 2.76}
{"variant": "MPEISRIQYEMEYTEGISQRMRVP", "note": "[A2P]", "protein stability index": 3.33}
{"variant": "MREISRIQYEMEYTEGISQRMRVP", "note": "[A2R]", "protein stability index": 2.54}
{"variant": "MYEISRIQYEMEYTEGISQRMRVP", "note": "[A2Y]", "protein stability index": 1.95}
{"variant": "MTEISRIQYEMEYTEGISQRMRVP", "note": "[A2T]", "protein stability index": 2.74}
